A word on the Kd: it is the constant that tells how readily two partners part at equilibrium. Read a high Kd as a looser complex.

Data on five molecules can be found in patent US20210047402A1 (published 2021).

Like-named read-outs stand apart in the source and are kept apart here.

Experiment [1] concerns the target T1, human CD22 (human, UniProt P20273 20-687). The experiment in a line: BLI. Put shortly:
(§1)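 Heavy chain-only antibodies were loaded at 5 μg/mL for 120 seconds onto anti-human IgG Fc capture biosensors on an Octet QK-384, using 1×PBS, 0.1% BSA, 0.02% Tween-20, pH 7.2 buffer. Human CD22 protein was applied in a 7-point 1:2 dilution series beginning at 250 nM, alongside a buffer-only reference well, and the data were fit to a 1:1 binding model in Octet Data Analysis v9.0. Kd, the affinity measure from this biolayer interferometry assay, was obtained as koff/kon.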

For experiment [2], the target named is T1, human CD22. The experiment in a line: BLI. Put shortly:
as §1
The source holds these as a separate data set. A general note: Biolayer interferometry detects binding as a change in optical thickness at a sensor tip.

T1 sequence (P20273 20-687): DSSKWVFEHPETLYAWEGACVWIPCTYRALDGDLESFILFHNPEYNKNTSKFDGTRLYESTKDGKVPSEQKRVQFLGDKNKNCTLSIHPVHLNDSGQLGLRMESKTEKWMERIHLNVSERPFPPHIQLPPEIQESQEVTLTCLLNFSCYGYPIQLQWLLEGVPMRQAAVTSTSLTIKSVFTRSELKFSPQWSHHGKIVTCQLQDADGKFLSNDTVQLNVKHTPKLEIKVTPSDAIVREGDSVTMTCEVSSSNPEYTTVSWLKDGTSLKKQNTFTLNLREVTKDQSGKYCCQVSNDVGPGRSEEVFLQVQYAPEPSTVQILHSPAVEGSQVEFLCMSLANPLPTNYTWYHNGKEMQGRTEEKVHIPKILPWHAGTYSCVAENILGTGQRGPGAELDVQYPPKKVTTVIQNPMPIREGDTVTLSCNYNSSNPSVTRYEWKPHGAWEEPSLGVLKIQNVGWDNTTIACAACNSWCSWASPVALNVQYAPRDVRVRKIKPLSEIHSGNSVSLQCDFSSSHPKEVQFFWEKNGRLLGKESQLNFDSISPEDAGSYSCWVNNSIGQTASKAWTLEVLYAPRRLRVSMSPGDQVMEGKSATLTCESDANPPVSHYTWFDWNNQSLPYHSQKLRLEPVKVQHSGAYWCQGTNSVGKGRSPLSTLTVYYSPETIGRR

B1: anti-CD22 heavy chain-only antibody Clone ID 335232 (antibody, V domains shown)
VH: QLQLQESGPGLVKPSETLSLTCTVSGDSISSGDYYWGWIRQPPGKGLEWIGHIYYSGATYYNPSLKNRVTISVDTSRNQSSLNLSSVTAADTAVYYCTREDSSNWRSRGQGTLVTVSS
B1 had a Kd with human CD22 [1] of 24.6 nM.

B2: anti-CD22 heavy chain-only antibody Clone ID 335234 (antibody, V domains shown)
VH: QLQLQESGPGLVKPSETLSLTCTVSGDSISSGDYYWGWIRQPPGKGLEWIGNIYYSGATYYNPSLKNRVTISVDTSKNQFSLKLSSVTAADTAVYYCTREDSSNWRSRGQGTLVTVSS
Regarding B2, the affinity with human CD22 [2], expressed as Kd, was 12.4 nM.

B3: anti-CD22 heavy chain-only antibody Clone ID 335263 (antibody, V domains shown)
VH: QLQLQESGPGLVKPSETLSLTCTVSGGSINDNSHYWGWIRQPPGKGLEWIGHIYYSGATYYNPSLKNRVTISVDTSRNQFSLNLSSVTAADTAVYYCTREDSSSWRSRGQGTLVTVSS
In the experiment with human CD22 [1], B3 gave a Kd of 2580 nM.

B4: anti-CD22 heavy chain-only antibody Clone ID 335171 (antibody, V domains shown)
VH: QLQLQESGPGLVKPSETLSLTCTVSGGSISSSSYYWGWIRQPPGKGLEWIGSIYYSGATYYNPSLKNRVTISVDTSRNQFSLNLSSVTAADTAVYYCTRDDSSNWRSRGQGTLVTVSS
Turning to B4, in the experiment with human CD22 [1], binding was put at a Kd of 84.5 nM.

B5: anti-CD22 heavy chain-only antibody Clone ID 335201 (antibody, V domains shown)
VH: QLQLQESGPGLVKPSETLSLTCTVSGDSISSGDYYWGWIRQPPGKGLEWIGHIYYSGVTYYNPSLKNRVTISVDTSRNQFSLKLSSVTAADTAVYYCTREDSSNWRSRGQGTLVTVSS
Take B5: in the experiment with human CD22 [2], the Kd came to 5.19 nM.
